Measurements: paper PMC3461508

B1: Cbp6 (natural protein)
chain: MSSSQVVRDSAKKLVNLLEKYPKDRIHHLVSFRDVQIARFRRVAGLPNVDDKGKSIKEKKPSLDEIKSIINRTSGPLGLNKEMLTKIQNKMVDEKFTEESINEQIRALSTIMNNKFRNYYDIGDKLYKPAGNPQYYQRLINAVDGKKKESLFTAMRTVLFGK
B2: Cbp3 (natural protein)
chain: ETAQDSPELLAKSSHLNSKPLDVSNKAPVKTAQNKIPLAHSKYESSKYELPKWKEALGELVIRAFHLDMDRVRAGPVAGSYYYKICKEQGLQYEDEPLSETAKYFYEDLKLPRTFSQWFQITVLHEWILFVRMRAMPFKYGRNYQQKLVDRTFSDIELRLFEEMKVNSGRIADQYLKDFNTQLRGAIFAYDEGFATDDGTLATAVWRNLFGGRKNIDMVHLESVVRYIYSQLYVLSRLSDREFATGKFKFVPPGVKVEKLTPKQEEELKAKTIAKYEALDKDPKTLPSERSRLSYTN

Target: mitochondrial ribosome (S. cerevisiae (endogenous in W303))
Assay: co-sedimentation

Binder | percent bound to the ribosome [%]
B1 | 20
B2 | 20
